Test results published in patent US20200308299A1, “ANTI-GPC-1 ANTIBODY” (National University Corporation Kochi University, priority 2017, published 2020).

Assays:
TE14 cells = assay: ADC assay combining anti-GPC-1 antibody and MMAF binding secondary antibody, TE14 cells; assay type: cell-based; settings: primary antibody plus MMAF secondary antibody
Experimental: FIG. 1 depicts a schematic diagram of an ADC used in an assay. This Example used a secondary antibody (MORADEC) to the anti-GPC1 antibody made in Example 1, to which an anticancer agent (MMAF) was bound via a linker.
2000 TE14 cells were added to a 96-well plate at 80 μl. The cells were cultured overnight at 37° C. in a 5% CO2 incubator. The next day, 10 μl of an anticancer agent bound secondary antibody and 10 μl of a primary antibody concentrated 10-fold relative to the final concentration was added to each well, so that the total amount was 100 μl. The cells were cultured for 6 days at 37° C. in a 5% CO2 incubator. The cell viability was measured by using a CellTiter-Glo Luminescent Cell Viability Assay reagent to detect the amount of ATP. RPMI1640+10% FBS+1% PS was used as the medium. The final concentrations of the primary antibody were 0, 0.004, 0.0156, 0.0625, 0.25, and 1.0 nM. 2 μg/ml of Fab-aMFc-CL-MMAF (model number: AM202AF-50, Moradec) was used as the secondary antibody.

DU145 cells = assay: ADC assay combining anti-GPC-1 antibody and MMAF binding secondary antibody in DU145 cells; assay type: cell-based; settings: 3 days; for EC50 values against DU145 cells: primary antibody plus MMAF secondary antibody
Experimental: 2000 DU145 cells were added to a 96-well plate at 80 μl. The cells were cultured overnight at 37° C. in a 5% CO2 incubator. The next day, 10 μl each of anticancer agent binding secondary antibody (2 μg/ml) and primary antibody concentrated 10-fold relative to the final concentration was added to each well, so that the total amount was 100 μl. The cells were cultured for 3 days at 37° C. in a 5% CO2 incubator. The cell viability was measured by using a CellTiter-Glo Luminescent Cell Viability Assay reagent to detect the amount of ATP. RPMI1640+10% FBS+1% PS was used as the medium. The final concentrations of the primary antibodies were […]. 2 μg/ml of Fab-aMFc-CL-MMAF (model number AM202AF-50, Moradec) was used as the secondary antibody. The EC50 value was analyzed with GraphPad Prism 6. The same experiment was conducted using 4000 MDA-MB231 cells as the control.

Row | Molecule | EC50 values against TE14 cells (TE14 cells) | EC50 values against DU145 cells (DU145 cells) | growth suppressing effect against DU145 cells (DU145 cells; primary antibody plus MMAF secondary antibody 2 μg/ml)
1 | clone 01a009: anti-human Glypican-1 antibody, heavy chain SEQ ID NO: 150, light chain SEQ ID NO: 152 (antibody) heavy: MKHLWFFLLLVAAPRWVLSEVQLQQSGPELVKPGASVEISCKASGYSFTGYFMNWVKQSQGKSLEWIGRINPDNGDIFYNQKFKGKATLTVDKSSSTAHMELRSLTSEDSAVYYCARSWNWYFDVWGAGTTVTVSSAKTTAPSVYPLAPVCGDTTGSSVTLGCLVKGYFPEPVTLTWNSGSLSSGVHTFPAVLQSDLYTLSSSVTVTSSTWPSQSITCNVAHPASSTKVDKKIEPRGPTIKPCPPCKCPAPNLLGGPSVFIFPPKIKDVLMISLSPIVTCVVVDVSEDDPDVQISWFVNNVEVHTAQTQTHREDYNSTLRVVSALPIQHQDWMSGKEFKCKVNNKDLPAPIERTISKPKGSVRAPQVYVLPPPEEEMTKKQVTLTCMVTDFMPEDIYVEWTNNGKTELNYKNTEPVLDSDGSYFMYSKLRVEKKNWVERNSYSCSVVHEGLHNHHTTKSFSRTPGK light: MRLLAQLLGLLMLWVPGSSGDIQMTQSPASLSASVGETVTITCRASENIYSYLAWYQQKQGKSPQLLVYNAKTLAEGVPSRFSGSGSGTQFSLKINSLQPEDFGSYYCQHHYGTPYTFGSGTKLEIKRADAAPTVSIFPPSSEQLTSGGASVVCFLNNFYPKDINVKWKIDGSERQNGVLNSWTDQDSKDSTYSMSSTLTLTKDEYERHNSYTCEATHKTSTSPIVKSFNRNEC | excellent EC50 values | excellent EC50 values | 
2 | clone 01a016: anti-human Glypican-1 antibody, heavy chain SEQ ID NO: 134, light chain SEQ ID NO: 136 (antibody) heavy: MKHLWFFLLLVAAPRWVLSQVHLQQSGPELVKPGASVKISCKASGYTFTDYYINWVKQKPGQGLEWIGYIDPYNDGSKYNEKFKGKATLTSDKSSSTAYMELSSLTSEDSAVYYCARTPYYSFYSYGFYFDYWGQGTTLTVSSAKTTAPSVYPLAPVCGDTTGSSVTLGCLVKGYFPEPVTLTWNSGSLSSGVHTFPAVLQSDLYTLSSSVTVTSSTWPSQSITCNVAHPASSTKVDKKIEPRGPTIKPCPPCKCPAPNLLGGPSVFIFPPKIKDVLMISLSPIVTCVVVDVSEDDPDVQISWFVNNVEVHTAQTQTHREDYNSTLRVVSALPIQHQDWMSGKEFKCKVNNKDLPAPIERTISKPKGSVRAPQVYVLPPPEEEMTKKQVTLTCMVTDFMPEDIYVEWTNNGKTELNYKNTEPVLDSDGSYFMYSKLRVEKKNWVERNSYSCSVVHEGLHNHHTTKSFSRTPGK light: MRLLAQLLGLLMLWVPGSSGDIVLTQSPASLAVSLGQRATISCRASKSVSTSSYSYMHWYQQKPGQPPKLLIKYASYLESGVPARFSGSGSGTDFTLNIHPVEEEDAATYYCQHSREFPLTFGAGTKLELKRADAAPTVSIFPPSSEQLTSGGASVVCFLNNFYPKDINVKWKIDGSERQNGVLNSWTDQDSKDSTYSMSSTLTLTKDEYERHNSYTCEATHKTSTSPIVKSFNRNEC | excellent EC50 values | excellent EC50 values | 
3 | clone 01a026: anti-human Glypican-1 antibody, heavy chain SEQ ID NO: 146, light chain SEQ ID NO: 148 (antibody) heavy: MKHLWFFLLLVAAPRWVLSQVHLQQSGAELVRPGTSVKMSCKAAGYTFTNYWIGWVKQRPGHGLEWIGDIYPGGGYTHYNEKFKGKATLTADTSSSTAYMQLSSLTSEDSAIYYCARERVYYDGSRFFDVWGAGTTVTVSSAKTTAPSVYPLAPVCGDTTGSSVTLGCLVKGYFPEPVTLTWNSGSLSSGVHTFPAVLQSDLYTLSSSVTVTSSTWPSQSITCNVAHPASSTKVDKKIEPRGPTIKPCPPCKCPAPNLLGGPSVFIFPPKIKDVLMISLSPIVTCVVVDVSEDDPDVQISWFVNNVEVHTAQTQTHREDYNSTLRVVSALPIQHQDWMSGKEFKCKVNNKDLPAPIERTISKPKGSVRAPQVYVLPPPEEEMTKKQVTLTCMVTDFMPEDIYVEWTNNGKTELNYKNTEPVLDSDGSYFMYSKLRVEKKNWVERNSYSCSVVHEGLHNHHTTKSFSRTPGK light: MRLLAQLLGLLMLWVPGSSGDIVMSQSPKFLPVSAGDRVTMTCKASQSVGNNVAWYQQKPGQSPKLLIYYASNRYTGVPDRFTGSGSGTDFTFTISSVQVEDLAVYFCQQHYSSPWTFGGGTKLEIKRADAAPTVSIFPPSSEQLTSGGASVVCFLNNFYPKDINVKWKIDGSERQNGVLNSWTDQDSKDSTYSMSSTLTLTKDEYERHNSYTCEATHKTSTSPIVKSFNRNEC | excellent EC50 values | excellent EC50 values | 

Further lines, with some results ahead:

Row | EC50 values against TE14 cells (TE14 cells) | EC50 values against DU145 cells (DU145 cells) | Molecule | growth suppressing effect against DU145 cells (DU145 cells; primary antibody plus MMAF secondary antibody 2 μg/ml)
4 | excellent EC50 values | excellent EC50 values | clone 4: anti-Glypican-1 antibody, heavy chain SEQ ID NO: 198, light chain SEQ ID NO: 200; sequence from WO 2015/098112 (antibody) heavy: AVTLDESGGGLQTPGRALSLVCKASGFTFSRYAMYWVRQAPGKGLEFVAGIGNTGRYTGYGSAVKGRATISRDSGQSTVRLQLNNLRAEDTGNYYCAKSVSPYCCDAADIDAWGHGTEVIVSS light: ASTQPSSVSANPGETVKITCSGGSSGYAYGWYQQKSPGSAPVTLLYSNNNRPSDIPSRFSGSKSGSTATLTITGVQAEDEAVYFCGSVDSSSYAGIFGAGTTLTVL | 
5 | excellent EC50 values | excellent EC50 values | clone 01a030: anti-human Glypican-1 antibody, heavy chain SEQ ID NO: 154, light chain SEQ ID NO: 156 (antibody) heavy: MKHLWFFLLLVAAPRWVLSQVQLQQSGAELVRPGTSVKMSCKAAGYTFTNYWIGWVKQRPGHGLEWIGDIYPGGGYTHYNEKFKGKATLTADTSSSTAYMQLSSLTSEDSAIYYCARERVYYDGSRYFDVWGAGTTVTVSSAKTTAPSVYPLAPVCGDTTGSSVTLGCLVKGYFPEPVTLTWNSGSLSSGVHTFPAVLQSDLYTLSSSVTVTSSTWPSQSITCNVAHPASSTKVDKKIEPRGPTIKPCPPCKCPAPNLLGGPSVFIFPPKIKDVLMISLSPIVTCVVVDVSEDDPDVQISWFVNNVEVHTAQTQTHREDYNSTLRVVSALPIQHQDWMSGKEFKCKVNNKDLPAPIERTISKPKGSVRAPQVYVLPPPEEEMTKKQVTLTCMVTDFMPEDIYVEWTNNGKTELNYKNTEPVLDSDGSYFMYSKLRVEKKNWVERNSYSCSVVHEGLHNHHTTKSFSRTPGK light: MRLLAQLLGLLMLWVPGSSGDIKMTQSPKFLPVSAGDRVTMTCKASQSVGNNVAWYQQKPGQSPKLLIYYASNRYTGVPDRFTGSGSGTDFTFTISSVQVEDLAVYFCQQHYSSPWTFGGGTKLEIKRADAAPTVSIFPPSSEQLTSGGASVVCFLNNFYPKDINVKWKIDGSERQNGVLNSWTDQDSKDSTYSMSSTLTLTKDEYERHNSYTCEATHKTSTSPIVKSFNRNEC | 
6 | excellent EC50 values | excellent EC50 values | clone 01a002: anti-human Glypican-1 antibody, heavy chain SEQ ID NO: 126, light chain SEQ ID NO: 128 (antibody) heavy: MKHLWFFLLLVAAPRWVLSEVQLQQSGPELVKPGASVKISCKSSGYSFTRYYMHWVKHSPEKSLEWIGEINPSTGDTTYNQKFKAKATLTVDKSSSTAYMQLKSLTSEDSAVYYCAREKRDDGVLAYWGQGTLVTVSSAKTTAPSVYPLAPVCGDTTGSSVTLGCLVKGYFPEPVTLTWNSGSLSSGVHTFPAVLQSDLYTLSSSVTVTSSTWPSQSITCNVAHPASSTKVDKKIEPRGPTIKPCPPCKCPAPNLLGGPSVFIFPPKIKDVLMISLSPIVTCVVVDVSEDDPDVQISWFVNNVEVHTAQTQTHREDYNSTLRVVSALPIQHQDWMSGKEFKCKVNNKDLPAPIERTISKPKGSVRAPQVYVLPPPEEEMTKKQVTLTCMVTDFMPEDIYVEWTNNGKTELNYKNTEPVLDSDGSYFMYSKLRVEKKNWVERNSYSCSVVHEGLHNHHTTKSFSRTPGK light: MRLLAQLLGLLMLWVPGSSGDIQMTQSPKFLPVSAGDRVTMTCKASQSVGNNVAWYQQKPGQSPKLLIYYASNRYTGVPDRFTGSGSGTDFTFTISSVQVEDLAVYFCQQHYSSPLTFGAGTKLELKRADAAPTVSIFPPSSEQLTSGGASVVCFLNNFYPKDINVKWKIDGSERQNGVLNSWTDQDSKDSTYSMSSTLTLTKDEYERHNSYTCEATHKTSTSPIVKSFNRNEC | high growth suppressing effect
